The text below walks through data of doi:10.1101/041756.

Like-named read-outs stand apart in the source and are kept apart here.

The target of assay [1] is microtubules (human (endogenous in HeLa)) (UniProt P68363).
Assay [2] shares this target. The source holds these as a separate data set.

UniProt P68363, sequence (P68363 whole entry): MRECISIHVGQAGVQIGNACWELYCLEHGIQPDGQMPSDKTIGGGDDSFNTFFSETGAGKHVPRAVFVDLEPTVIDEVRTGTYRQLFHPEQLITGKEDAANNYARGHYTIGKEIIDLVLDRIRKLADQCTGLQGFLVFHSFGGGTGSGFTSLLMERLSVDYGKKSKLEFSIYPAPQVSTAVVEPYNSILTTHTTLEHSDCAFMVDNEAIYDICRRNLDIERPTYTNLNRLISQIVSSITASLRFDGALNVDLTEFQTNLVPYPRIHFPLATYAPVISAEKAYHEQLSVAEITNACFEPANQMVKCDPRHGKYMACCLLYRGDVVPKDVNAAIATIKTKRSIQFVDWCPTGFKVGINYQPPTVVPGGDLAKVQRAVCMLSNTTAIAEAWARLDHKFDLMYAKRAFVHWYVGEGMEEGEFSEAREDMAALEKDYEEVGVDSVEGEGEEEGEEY

As for AT8mut-CST (S199A/S202A/T205A), in assay [1], the FRAP in living reporter cells: mobile fraction was 57% and the FRAP in living reporter cells: τ2 amounted to 46.8.
Take P301S-CST: the FRAP in living reporter cells: mobile fraction in assay [1] was found to be 85%.
In assay [1], P301L-CST gave an FRAP in living reporter cells: diffusive fraction of 38% and an FRAP in living reporter cells: mobile fraction of 84%.
Substance S422E-CST displayed an FRAP in living reporter cells: mobile fraction in assay [1] of 86%.
In assay [2], “Conformational-Sensitive Tau sensor (ECFP-Tau-EYFP, full length Tau-D, 0N4R) (from UniProt P10636-6 1-383)” registered an FRAP in living reporter cells: mobile fraction of 73% and an FRAP in living reporter cells: τ1 of the MTs-bound phase of 30 s.
